Experimental data published in the supplement of paper PMC7877785.
± gives the uncertainty stated by the source.

Assay: self-splicing fitness, log relative to wild type (ln ratio); higher = more splicing; Tetrahymena group I intron in knt gene, E. coli kanamycin selection, DiMSum; sequences stand for … in CUCUCU…GGAGGGAAAAGUUAUCAGGCAUGCACCUGGUAGCUAGUCUUUAAACCAAUAGAUUGCAUCGGUUUAAAAGGCAAGACCGUCAAAUUGCGGGAAAGGGGUCAACAGCCGUUCAGUACCAAGUCUCAGGGGAAACUUUGAGAUGGCCUUGCAAAGGGUAUGGUAAUAAGCUGACGGACAUGGUCCUAACCACGCAGCCAAGUCCUAAGUCAACAGAUCUUCUGUUGAUAUGGAUGCAGUUCACAGACUAAAUGUCGGUCGGGGAAGAUGUAUUCUUCUCAUAAGAUAUAGUCGGACCUCUCCUUAAUGGGAGCUAGCGGAUGAAGUGAUGCAACACUGGAGCCGCUGGGAACUAAUUUGUAUGCGAAAGUAUAUUGAUUAGUUUUGGAGUACUCGUGGUCG
Outline: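 Pooled colonies went to amplicon sequencing on an Illumina HiSeq 2500 after six replicate transformations. The plates were LB agar with 100 μg/mL carbenicillin, 50 μM IPTG and 0.2% rhamnose, with or without 25 μg/mL kanamycin, incubated overnight at 37°C or 30°C. The E. coli BL21(DE3) library had all eight P1ex-region intron nucleotides randomised, the intron placed in the knt kanamycin-resistance gene on pET-22b(+). DiMSum fitness is the error-weighted combination of replicate fold changes, kanamycin against none, normalised to wild type.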

| Sequence | self-splicing fitness (ln) (30 °C) | self-splicing fitness (ln) (37 °C) |
| --- | --- | --- |
| ACAAAGCAAUAUUACGCUAG | -1.53 ± 0.072 | -1.72 ± 0.086 |
| ACAAAGCAAUAUUACGGCCA | -1.13 ± 0.14 | -0.00489 ± 0.11 |
| ACAAAGCAAUAUUACGGCGU | -1.78 ± 0.075 | -1.17 ± 0.093 |
| ACAAAGCAAUAUUACGGGAC | -3.25 ± 0.17 | -1.96 ± 0.14 |
| ACAAAGCAAUAUUACGGGCU | -1.07 ± 0.055 | -0.972 ± 0.088 |
| ACAAAGCAAUAUUACGUAAU | -2.62 ± 0.061 | -1.14 ± 0.074 |
| ACAAAGCAAUAUUACGUAGG | -2.88 ± 0.1 | -1.55 ± 0.12 |
| ACAAAGCAAUAUUACGUGGG | -3.35 ± 0.13 | -2.47 ± 0.14 |
| ACAAAGCAAUAUUACGUGUC | -3.69 ± 0.14 | -3 ± 0.16 |
| ACAAAGCAAUAUUACGUGUG | -1.91 ± 0.052 | -0.905 ± 0.057 |
| ACAAAGCAAUAUUACGUUCA | -1.2 ± 0.068 | -0.708 ± 0.076 |
| ACACAGCAAUAUUACGAACU | -0.798 ± 0.05 | -0.493 ± 0.068 |
| ACACAGCAAUAUUACGAAGC | -4.18 ± 0.22 | -2.8 ± 0.21 |
| ACACAGCAAUAUUACGAAUA | -2.21 ± 0.13 | -1.6 ± 0.11 |
| ACACAGCAAUAUUACGACUG | -0.972 ± 0.047 | -0.67 ± 0.06 |
| ACACAGCAAUAUUACGAGCA | -1.44 ± 0.12 | -1.45 ± 0.13 |
| ACACAGCAAUAUUACGAUAC | -2.58 ± 0.26 | -2.69 ± 0.25 |
| ACACAGCAAUAUUACGCAGU | -3.84 ± 0.14 | -2.73 ± 0.12 |
| ACACAGCAAUAUUACGCCUU | -1.62 ± 0.076 | -0.434 ± 0.091 |
| ACACAGCAAUAUUACGCGCG | -0.558 ± 0.082 | 0.0666 ± 0.091 |
| ACACAGCAAUAUUACGCGGG | -2.43 ± 0.075 | -1.69 ± 0.091 |
| ACACAGCAAUAUUACGCGUG | -2.25 ± 0.074 | -1.68 ± 0.081 |
| ACACAGCAAUAUUACGCUCA | -0.416 ± 0.087 | -0.203 ± 0.093 |
| ACACAGCAAUAUUACGGACC | -1.99 ± 0.093 | -0.524 ± 0.11 |

| Sequence | self-splicing fitness (ln) (30 °C) | self-splicing fitness (ln) (37 °C) |
| --- | --- | --- |
| ACACAGCAAUAUUACGGCCA | -1.18 ± 0.12 | -1.17 ± 0.11 |
| ACACAGCAAUAUUACGGGUG | -1.31 ± 0.053 | -0.999 ± 0.065 |
| ACACAGCAAUAUUACGGUGA | -1.31 ± 0.068 | 0.17 ± 0.077 |
| ACACAGCAAUAUUACGUCCC | -1.16 ± 0.098 | -0.00572 ± 0.12 |
| ACACAGCAAUAUUACGUCGG | -1.65 ± 0.052 | -1.16 ± 0.071 |
| ACACAGCAAUAUUACGUGAG | -1.02 ± 0.05 | 0.121 ± 0.074 |
| ACACAGCAAUAUUACGUUCU | -0.986 ± 0.06 | -0.532 ± 0.068 |
| ACAGAGCAAUAUUACGAGAG |  | -2.6 ± 0.28 |
| ACAGAGCAAUAUUACGCAUA | -3.96 ± 0.31 | -1.8 ± 0.2 |
| ACAGAGCAAUAUUACGCGAU | -3.54 ± 0.24 | -3.29 ± 0.3 |
| ACAGAGCAAUAUUACGGAAU | -4.08 ± 0.29 | -1.86 ± 0.31 |
| ACAGAGCAAUAUUACGGACU | -2.73 ± 0.18 | -1.07 ± 0.14 |
| ACAGAGCAAUAUUACGGCUC | -3.09 ± 0.16 | -2.37 ± 0.22 |
| ACAGAGCAAUAUUACGGGGA | -4.66 ± 0.34 | -3.55 ± 0.25 |
| ACAGAGCAAUAUUACGGGUG | -2.96 ± 0.15 | -1.43 ± 0.12 |
| ACAGAGCAAUAUUACGGUUU | -3.11 ± 0.2 | -1.81 ± 0.16 |
| ACAGAGCAAUAUUACGUACG | -3.9 ± 0.23 | -2.3 ± 0.2 |
| ACAGAGCAAUAUUACGUGAU | -2.97 ± 0.1 | -2.08 ± 0.15 |
| ACAGAGCAAUAUUACGUUAU | -3.59 ± 0.19 | -3 ± 0.25 |
| ACAUAGCAAUAUUACGACAA | -0.573 ± 0.12 | -0.73 ± 0.12 |
| ACAUAGCAAUAUUACGAGCU | -1.32 ± 0.12 | -0.388 ± 0.13 |
| ACAUAGCAAUAUUACGAUAC | -3.6 ± 0.23 | -2.2 ± 0.25 |
| ACAUAGCAAUAUUACGAUCG | 0.0966 ± 0.084 | -0.312 ± 0.13 |
| ACAUAGCAAUAUUACGAUUC | -2.52 ± 0.15 | -1.52 ± 0.12 |

| Sequence | self-splicing fitness (ln) (30 °C) | self-splicing fitness (ln) (37 °C) |
| --- | --- | --- |
| ACAUAGCAAUAUUACGGAAC | -3.66 ± 0.24 | -2 ± 0.27 |
| ACAUAGCAAUAUUACGGCCC | -1.29 ± 0.14 | -0.169 ± 0.23 |
| ACAUAGCAAUAUUACGGCUC | -0.967 ± 0.092 | -0.28 ± 0.12 |
| ACAUAGCAAUAUUACGGGCG | -1.28 ± 0.09 | -1 ± 0.096 |
| ACAUAGCAAUAUUACGUCCC | -1.71 ± 0.15 | -0.222 ± 0.23 |
| ACAUAGCAAUAUUACGUCGC | -4.47 ± 0.38 | -1.69 ± 0.24 |
| ACAUAGCAAUAUUACGUGCG | -1.05 ± 0.064 | -0.527 ± 0.081 |
| ACAUAGCAAUAUUACGUGUG | -2.41 ± 0.065 | -1.58 ± 0.069 |
| ACAUAGCAAUAUUACGUUAU | -4.28 ± 0.29 | -3.07 ± 0.2 |
| ACAUAGCAAUAUUACGUUGA | -2.56 ± 0.17 | -1.66 ± 0.14 |
| ACAUAGCAAUAUUACGUUUA | -2.82 ± 0.19 | -1.75 ± 0.14 |
| ACCAAGCAAUAUUACGAAAG | -3.27 ± 0.18 | -1.78 ± 0.14 |
| ACCAAGCAAUAUUACGAGAA | -2.87 ± 0.34 | -2.32 ± 0.3 |
| ACCAAGCAAUAUUACGAGCA | -2.53 ± 0.12 | -0.958 ± 0.099 |
| ACCAAGCAAUAUUACGAGUA | -2.81 ± 0.14 | -2.29 ± 0.13 |
| ACCAAGCAAUAUUACGAGUU | -4.23 ± 0.23 | -1.99 ± 0.17 |
| ACCAAGCAAUAUUACGAUAG | -4.36 ± 0.23 | -2.7 ± 0.21 |
| ACCAAGCAAUAUUACGAUCC | -1.83 ± 0.093 | -0.778 ± 0.14 |
| ACCAAGCAAUAUUACGCAGC | -1.83 ± 0.11 | -1.12 ± 0.13 |
| ACCAAGCAAUAUUACGCCGA | -2.23 ± 0.15 | -1.81 ± 0.16 |
| ACCAAGCAAUAUUACGCCGG | -2.33 ± 0.13 | -0.125 ± 0.13 |
| ACCAAGCAAUAUUACGCCGU | -3.18 ± 0.17 | -1.66 ± 0.15 |
| ACCAAGCAAUAUUACGCGAC | -3.19 ± 0.16 | -1.59 ± 0.16 |
| ACCAAGCAAUAUUACGCGCA | -0.525 ± 0.054 | -0.106 ± 0.07 |

| Sequence | self-splicing fitness (ln) (30 °C) | self-splicing fitness (ln) (37 °C) |
| --- | --- | --- |
| ACCAAGCAAUAUUACGCUGG | -2.75 ± 0.15 | -2.72 ± 0.21 |
| ACCAAGCAAUAUUACGCUUG | -2.72 ± 0.21 | -3.79 ± 0.36 |
| ACCAAGCAAUAUUACGGACA | -0.841 ± 0.068 | -0.38 ± 0.072 |
| ACCAAGCAAUAUUACGGCUU | -3.85 ± 0.2 | -1.85 ± 0.16 |
| ACCAAGCAAUAUUACGGUCA | -1.36 ± 0.082 | -0.9 ± 0.086 |
| ACCAAGCAAUAUUACGUAAC | -3.94 ± 0.17 | -2.19 ± 0.16 |
| ACCAAGCAAUAUUACGUAGG | -2.55 ± 0.068 | -2.03 ± 0.096 |
| ACCAAGCAAUAUUACGUCCA | -2.01 ± 0.096 | -1.3 ± 0.1 |
| ACCAAGCAAUAUUACGUGAU | -2.46 ± 0.072 | -0.924 ± 0.074 |
| ACCAAGCAAUAUUACGUGCC | -0.735 ± 0.082 | -0.801 ± 0.13 |
| ACCCAGCAAUAUUACGAACC | -2.19 ± 0.15 | -0.993 ± 0.15 |
| ACCCAGCAAUAUUACGACAG | -3.36 ± 0.12 | -1.67 ± 0.11 |
| ACCCAGCAAUAUUACGACGU | -0.291 ± 0.055 | 0.39 ± 0.071 |
| ACCCAGCAAUAUUACGAGAG | -2.16 ± 0.086 | -0.789 ± 0.09 |
| ACCCAGCAAUAUUACGAUAU | -1.72 ± 0.1 | -0.318 ± 0.11 |
| ACCCAGCAAUAUUACGAUCA | -0.557 ± 0.11 | -0.56 ± 0.13 |
| ACCCAGCAAUAUUACGAUCU | -1.34 ± 0.068 | -0.243 ± 0.084 |
| ACCCAGCAAUAUUACGCAAU | -0.941 ± 0.053 | 0.344 ± 0.064 |
| ACCCAGCAAUAUUACGCAGG | -3.07 ± 0.11 | -2.48 ± 0.16 |
| ACCCAGCAAUAUUACGCAUA | -1.19 ± 0.061 | -1.07 ± 0.066 |
| ACCCAGCAAUAUUACGCCCA | -0.605 ± 0.12 | -0.4 ± 0.13 |
| ACCCAGCAAUAUUACGCCCG | -2.3 ± 0.18 | -1.22 ± 0.19 |
| ACCCAGCAAUAUUACGCCCU | -0.0641 ± 0.052 | 0.262 ± 0.091 |
